# T1: p75 on A875 human melanoma cells (human, UniProt P08138 29-427)
# T1 construct: whole, on cells; also called A875-p75
# T1 sequence (looked up): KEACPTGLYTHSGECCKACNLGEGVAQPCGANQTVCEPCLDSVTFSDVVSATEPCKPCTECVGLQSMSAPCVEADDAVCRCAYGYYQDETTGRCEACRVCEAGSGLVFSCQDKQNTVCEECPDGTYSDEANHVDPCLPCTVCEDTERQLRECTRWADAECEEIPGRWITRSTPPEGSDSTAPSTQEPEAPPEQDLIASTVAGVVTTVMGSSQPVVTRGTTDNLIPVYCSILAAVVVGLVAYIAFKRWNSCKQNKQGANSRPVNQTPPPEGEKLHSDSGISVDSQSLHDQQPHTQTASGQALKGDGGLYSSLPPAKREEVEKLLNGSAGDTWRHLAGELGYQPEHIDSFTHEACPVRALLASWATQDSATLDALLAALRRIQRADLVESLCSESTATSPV
# Columns and labels:
# [1] = target: T2, rat trkA recombinantly expressed on NIH3T3 cells (rat, UniProt P35739 33-799); assay: cell-based or functional assay
# [2] = target: trkA on parental PC12 cells (rat, UniProt P35739 33-799); assay: cell-based or functional assay
# [3] = target: T2, rat trkA recombinantly expressed on …; assay: 125I-hNGF displacement, NIH3T3-trkA cells, 4 C
# [4] = target: T1, p75 on A875 human melanoma cells; assay: 125I-hNGF displacement, A875 cells (p75), 4 C
# T2 sequence (P35739 33-799): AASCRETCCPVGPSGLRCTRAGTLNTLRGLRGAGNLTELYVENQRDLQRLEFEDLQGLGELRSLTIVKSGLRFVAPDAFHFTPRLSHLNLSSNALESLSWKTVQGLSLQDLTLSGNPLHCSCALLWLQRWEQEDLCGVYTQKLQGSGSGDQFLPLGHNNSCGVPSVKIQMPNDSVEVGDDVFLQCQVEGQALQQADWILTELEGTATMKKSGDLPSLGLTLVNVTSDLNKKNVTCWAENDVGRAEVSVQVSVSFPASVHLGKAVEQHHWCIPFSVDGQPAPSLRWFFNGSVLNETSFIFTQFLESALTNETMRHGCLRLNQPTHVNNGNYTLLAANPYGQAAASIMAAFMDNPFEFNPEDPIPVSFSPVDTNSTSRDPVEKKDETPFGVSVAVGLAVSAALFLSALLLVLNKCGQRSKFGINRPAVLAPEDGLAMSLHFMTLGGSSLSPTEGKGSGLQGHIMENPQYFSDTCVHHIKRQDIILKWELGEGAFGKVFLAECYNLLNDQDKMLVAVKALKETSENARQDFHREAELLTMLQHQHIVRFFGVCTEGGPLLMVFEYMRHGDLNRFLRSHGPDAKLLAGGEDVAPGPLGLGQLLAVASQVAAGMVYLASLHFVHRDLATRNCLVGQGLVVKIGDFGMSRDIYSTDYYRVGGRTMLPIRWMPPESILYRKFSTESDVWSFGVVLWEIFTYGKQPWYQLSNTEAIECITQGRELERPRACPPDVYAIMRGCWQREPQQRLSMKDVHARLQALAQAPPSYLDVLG
# Sequence of trkA on parental PC12 cells (P35739 33-799): as above
binder,measurement,setting,value
hNGF Mut 5 (hBDNF N-terminal chimeric mutant) (ligand) HSDPAHRGEFSVCDSVSVWVGDKTTATDIKGKEVMVLGEVNINNSVFKQYFFETKCRDPNPVDSGCRGIDSKHWNSYCTTTHTFVKALTMDGKQAAWRFIRIDTACVCVLSRKAVRRA,"trkA autophosphorylation, maximal level at 1 × 10^-8 M, mutant/hNGF",[1],0.07 ratio
same,PC12 neurite outgrowth EC50,[2],0.016 µg/mL
same,PC12 neurite outgrowth EC50 mutant/hNGF,[2],114 ratio
same,IC50 mut/NGF,[3],> 40 ratio
same,IC50,[4],0.21 nM
same,IC50 mut/NGF,[4],1 ratio

# — patent publication US7144983 (Genentech, dated 2006)
